Laboratory results: the Immune Epitope Database (IEDB)

How the values were obtained:
[1] = target: HLA-C*03:03; assay: IEDB peptide-MHC binding, purified MHC/direct/fluorescence; filed as Kd, often an IC50 or EC50 that approximates it; ≥ and ≤ were set here for values at or beyond the usual limits of such assays
[2] = target: HLA-A*26:01; assay: IEDB peptide-MHC binding, purified MHC/competitive/fluorescence; filed as Kd, often an IC50 or EC50 that approximates it; ≥ and ≤ were set here for values at or beyond the usual limits of such assays
[3] = target: HLA-B*15:42; assay: as above
[4] = target: HLA-B*35:01; assay: as above; settings: source organism: Yersinia pestis Nepal516
[5] = target: HLA-B*45:06; assay: as above
[6] = target: HLA-B*83:01; assay: as above
[7] = target: HLA-C*14:02; assay: as above
[8] = target: HLA-C*04:01; assay: IEDB peptide-MHC binding, purified MHC/direct/fluorescence; filed as Kd, often an IC50 or EC50 that approximates it; ≥ and ≤ were set here for values at or beyond the usual limits of such assays
[9] = target: HLA-C*05:01; assay: as above
[10] = target: HLA-A*02:01; assay: IEDB peptide-MHC binding, purified MHC/competitive/fluorescence; filed as Kd, often an IC50 or EC50 that approximates it; ≥ and ≤ were set here for values at or beyond the usual limits of such assays
[11] = target: HLA-A*02:06; assay: as above; settings: source organism: Brucella suis 1330
[12] = target: HLA-A*32:07; assay: as above
[13] = target: HLA-B*27:20; assay: as above
[14] = target: HLA-B*40:13; assay: as above
[15] = target: HLA-C*06:02; assay: IEDB peptide-MHC binding, purified MHC/direct/fluorescence; filed as Kd, often an IC50 or EC50 that approximates it; ≥ and ≤ were set here for values at or beyond the usual limits of such assays; settings: source organism: SARS-CoV1
[16] = target: HLA-C*07:02; assay: as above; settings: source organism: Yersinia pestis CO92
[17] = target: HLA-C*08:02; assay: as above; settings: source organism: Yersinia pestis CO92
[18] = target: HLA-A*32:15; assay: IEDB peptide-MHC binding, purified MHC/competitive/fluorescence; filed as Kd, often an IC50 or EC50 that approximates it; ≥ and ≤ were set here for values at or beyond the usual limits of such assays; settings: source organism: Yersinia pestis CO92
[19] = target: HLA-A*68:23; assay: as above; settings: source organism: Yersinia pestis CO92
[20] = target: HLA-B*39:01; assay: as above
[21] = target: HLA-C*06:02; assay: as above; settings: source organism: Yersinia pestis CO92
[22] = target: HLA-C*12:03; assay: IEDB peptide-MHC binding, purified MHC/direct/fluorescence; filed as Kd, often an IC50 or EC50 that approximates it; ≥ and ≤ were set here for values at or beyond the usual limits of such assays
[23] = target: HLA-A*24:03; assay: as above; settings: source organism: Bacillus anthracis
[24] = target: HLA-A*02:03; assay: IEDB peptide-MHC binding, purified MHC/competitive/fluorescence; filed as Kd, often an IC50 or EC50 that approximates it; ≥ and ≤ were set here for values at or beyond the usual limits of such assays
[25] = target: HLA-A*02:12; assay: as above
[26] = target: HLA-A*02:16; assay: as above
[27] = target: HLA-A*02:19; assay: as above
[28] = target: HLA-A*03:01; assay: as above
[29] = target: HLA-A*23:01; assay: as above
[30] = target: HLA-A*24:03; assay: as above
[31] = target: HLA-A*29:02; assay: as above
[32] = target: HLA-A*69:01; assay: as above
[33] = target: HLA-B*15:17; assay: as above
[34] = target: HLA-B*18:01; assay: as above
[35] = target: HLA-B*27:03; assay: as above
[36] = target: HLA-B*46:01; assay: as above
[37] = target: HLA-B*51:01; assay: as above
[38] = target: HLA-B*57:01; assay: as above
[39] = target: HLA-A*02:11; assay: as above
[40] = target: HLA-A*68:02; assay: as above
[41] = target: HLA-B*15:01; assay: as above
[42] = target: HLA-A*31:01; assay: as above; settings: source organism: Escherichia coli E110019
[43] = source organism: Yersinia pestis Nepal516
[44] = source organism: Vaccinia virus
[45] = source organism: Brucella suis 1330
[46] = source organism: Yersinia pestis CO92
[47] = source organism: Mycobacterium tuberculosis F11
[48] = source organism: Giardia lamblia ATCC 50803
[49] = source organism: Escherichia coli E110019
[50] = source organism: Vibrio cholerae MAK 757

RLDPRLAPV was tested, and the Kd ([1]; source organism: Mycobacterium tuberculosis variant bovis BCG str. Pasteur 1173P2) was at least 20 µM.

For MVLSGTLAY, the Kd [2, 43] was 0.506 µM, the Kd [3, 43] was at least 5 µM and the Kd [4] was 0.0012 µM. For the same sequence, the Kd [5, 43] was at least 5 µM, the Kd [6, 43] was at least 5 µM and the Kd [7, 43] was 0.123 µM.

FVDVIIIKV was tested, and the Kd [8, 44] was at least 20 µM and the Kd [9, 44] was at least 20 µM.

RQNAPFEPI showed a Kd [10, 45] of 0.0834 µM, a Kd [11] of 0.0012 µM and a Kd [12, 45] of 0.0119 µM. The Kd [3, 45] was at least 5 µM, the Kd [13, 45] was 0.0011 µM and the Kd [14, 45] was 0.0536 µM. For the same sequence, the Kd [5, 45] was at least 5 µM and the Kd [6, 45] was at least 5 µM.

SYCNGVREL was tested, and the Kd ([8]; source organism: SARS-CoV1) was at least 20 µM and the Kd [15] was 0.133 µM.

In the case of YSFSRAYTL, the Kd [9, 46] is reported as at least 20 µM, the Kd [16] is reported as 0.347 µM and the Kd [17] is reported as at least 20 µM. It also gave a Kd [12, 46] of 0.165 µM, a Kd [18] of 0.0237 µM and a Kd [19] of 0.0093 µM. It also gave a Kd [3, 46] of at least 5 µM, a Kd [13, 46] of 0.0315 µM and a Kd [20, 46] of 0.0039 µM. For the same sequence, the Kd [14, 46] was 0.0063 µM, the Kd [5, 46] was at least 5 µM and the Kd [6, 46] was at least 5 µM. For the same sequence, the Kd [21] was 0.0478 µM and the Kd [7, 46] was 0.125 µM.

Work on FVAATGRPL yielded a Kd [1, 47] of at most 0.001 µM, a Kd [22, 47] of 0.095 µM and a Kd [3, 47] of at least 5 µM. The Kd [5, 47] was at least 5 µM and the Kd [7, 47] was 0.0302 µM.

Work on AYPKWKFFL yielded a Kd [23] of 0.0017 µM and a Kd ([8]; source organism: Bacillus anthracis str. CDC 684) of at least 20 µM.

Sequence SQLPPACPV has a Kd ([10]; source organism: Homo sapiens) of 0.0306 µM, a Kd ([24]; source organism: Homo sapiens) of at least 20 µM and a Kd ([25]; source organism: Homo sapiens) of 0.17 µM. For the same sequence, the Kd ([26]; source organism: Homo sapiens) was at least 20 µM, the Kd ([27]; source organism: Homo sapiens) was at least 20 µM and the Kd ([28]; source organism: Homo sapiens) was at least 20 µM. For the same sequence, the Kd ([29]; source organism: Homo sapiens) was at least 20 µM, the Kd ([30]; source organism: Homo sapiens) was at least 20 µM and the Kd ([2]; source organism: Homo sapiens) was at least 20 µM. It also gave a Kd ([31]; source organism: Homo sapiens) of at least 20 µM, a Kd ([32]; source organism: Homo sapiens) of at least 20 µM and a Kd ([33]; source organism: Homo sapiens) of at least 20 µM. The Kd ([34]; source organism: Homo sapiens) was at least 20 µM, the Kd ([35]; source organism: Homo sapiens) was at least 20 µM and the Kd ([36]; source organism: Homo sapiens) was at least 20 µM. The Kd ([37]; source organism: Homo sapiens) was at least 20 µM and the Kd ([38]; source organism: Homo sapiens) was at least 20 µM.

In the case of ALGGSCHTT, the Kd [10, 48] is reported as at least 20 µM, the Kd [24, 48] is reported as at least 20 µM and the Kd [39, 48] is reported as at least 20 µM. For the same sequence, the Kd [25, 48] was at least 20 µM, the Kd [26, 48] was at least 20 µM and the Kd [27, 48] was 0.555 µM. For the same sequence, the Kd [28, 48] was at least 20 µM, the Kd [30, 48] was at least 20 µM and the Kd [2, 48] was at least 20 µM. It also gave a Kd [31, 48] of at least 20 µM, a Kd [40, 48] of at least 20 µM and a Kd [32, 48] of at least 20 µM. It also gave a Kd [41, 48] of at least 20 µM, a Kd [33, 48] of at least 20 µM and a Kd [34, 48] of at least 20 µM. The Kd [35, 48] was at least 20 µM, the Kd [20, 48] was at least 20 µM and the Kd [36, 48] was at least 20 µM. It also gave a Kd [37, 48] of at least 20 µM and a Kd [38, 48] of at least 20 µM.

Sequence RAFWGQVQK has a Kd [10, 49] of at least 20 µM, a Kd [24, 49] of at least 20 µM and a Kd [39, 49] of at least 20 µM. The Kd [25, 49] was at least 20 µM, the Kd [26, 49] was at least 20 µM and the Kd [27, 49] was at least 20 µM. It also gave a Kd [29, 49] of at least 20 µM, a Kd [30, 49] of at least 20 µM and a Kd [2, 49] of at least 20 µM. It also gave a Kd [42] of 0.0027 µM, a Kd [40, 49] of at least 20 µM and a Kd [32, 49] of at least 20 µM. For the same sequence, the Kd [41, 49] was at least 20 µM, the Kd [34, 49] was at least 20 µM and the Kd [20, 49] was at least 20 µM. For the same sequence, the Kd [36, 49] was at least 20 µM, the Kd [37, 49] was at least 20 µM and the Kd [38, 49] was at least 20 µM.

Work on IAAPNMIAV yielded a Kd [1, 50] of at most 0.001 µM, a Kd [9, 50] of 2.17 µM and a Kd [22, 50] of 0.002 µM. For the same sequence, the Kd [36, 50] was 0.578 µM.
